# Experimental data as given in article PMC3084679 (Molecular Biology of the Cell, 2011).
# B1: GST-Ypt52 (natural protein, S. cerevisiae, UniProt P36018 1-234, looked up)
# chain: MLQFKLVLLGDSSVGKSSIVHRFVKDTFDELRESTIGAAFLSQSITIHPNDGNETKDVVIKFEIWDTAGQERYKSLAPMYYRNANAALVVYDITQEDSLQKARNWVDELKNKVGDDDLVIYLLGNKVDLCQETPSTETSPDSNEGGDEEQKVRAISTEEAKQYAQEQGLLFREVSAKTGEGVKEIFQDIGEKLYDLKKDEILSKQNRQIGGGNNGQVDINLQRPSTNDPTSCCS
# Target: recombinant Roy1–Skp1 complex (S. cerevisiae, UniProt Q04847 1-553; P52286 1-194)
# Sequence (Q04847 whole entry, chain 1 of 2): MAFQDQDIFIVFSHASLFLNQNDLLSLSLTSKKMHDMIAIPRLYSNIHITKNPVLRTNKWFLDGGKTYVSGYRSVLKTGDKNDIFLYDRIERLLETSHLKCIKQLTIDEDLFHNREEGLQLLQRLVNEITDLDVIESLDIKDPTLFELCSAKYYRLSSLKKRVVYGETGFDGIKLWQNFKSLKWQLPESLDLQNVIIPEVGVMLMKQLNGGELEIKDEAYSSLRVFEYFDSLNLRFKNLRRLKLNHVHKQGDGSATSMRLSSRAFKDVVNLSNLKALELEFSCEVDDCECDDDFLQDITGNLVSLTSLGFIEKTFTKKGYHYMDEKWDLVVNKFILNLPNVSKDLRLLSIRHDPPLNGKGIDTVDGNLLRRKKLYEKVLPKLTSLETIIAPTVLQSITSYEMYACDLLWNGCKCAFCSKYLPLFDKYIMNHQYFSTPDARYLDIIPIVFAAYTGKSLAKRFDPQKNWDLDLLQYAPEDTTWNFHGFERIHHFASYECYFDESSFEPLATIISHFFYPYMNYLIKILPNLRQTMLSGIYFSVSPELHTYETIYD
# Sequence (P52286 whole entry, chain 2 of 2): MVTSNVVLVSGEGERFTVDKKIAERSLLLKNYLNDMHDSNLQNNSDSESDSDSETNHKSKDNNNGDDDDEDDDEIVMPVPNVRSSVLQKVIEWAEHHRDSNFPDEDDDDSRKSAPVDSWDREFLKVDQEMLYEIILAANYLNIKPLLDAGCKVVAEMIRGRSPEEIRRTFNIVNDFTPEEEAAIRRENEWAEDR
# Assay: pull-down
binder,measurement,value
B1,binding result,binds
